Assays:
[1] = target: recombinant PfPKG quintuple mutant STmut (Plasmodium falciparum) (UniProt Q8I719)
[2] = target: recombinant wild-type PfPKG (Plasmodium falciparum) (UniProt Q8I719)

For PKAtide (peptide), the PKAtide concentration at half maximal velocity (Km), ParM-ADP real-time fluorescence kinase assay [1] was 13 µM and the PKAtide concentration at half maximal velocity (Km), ParM-ADP real-time fluorescence kinase assay [2] was 10 µM.

From publication PMC11236177
